Columns and labels:
[1] = molecular target: T1, Human His-tagged PILRα, extracellular domain (human, UniProt Q9UKJ1 20-197); test: ELISA; plate coated with 2 µg/mL human CD99, PILRα at 0.25 to 5 µg/mL, detected with an anti-PILRα antibody and HRP-bound secondary; conditions: both partners purified
T1 construct: PILRα, human, extracellular domain; Band at 55 kDa on SDS-PAGE; also called human PILRα; source: Expi293F, transfected (pcDNA3.4), purified from the supernatant (HisPur Ni-NTA column)

[2] = molecular target: T2, CD99 (or MIC2), 32 kDa type I membrane glycoprotein, on cells (Homo sapiens, UniProt P14209); test: flow cytometry on cells; Ewing sarcoma cells incubated with anti-CD99 IgG1 (2 µg/mL; NOA1 10 µg/mL; NOA2 also titrated) for one hour at 4 °C, then FITC-conjugated mouse anti-human IgG; CD99-negative Kelly neuroblastoma cells as negative control; conditions: one partner purified
T2 construct: CD99 (MIC2), human, endogenous on the cell surface; also called Ewing CD99; macrophage CD99; source: endogenous, on human Ewing sarcoma cell lines (A673, TC32, CADO-ES1, TC71, TTC466); endogenous, on monocytes derived from human PBMCs

T1 sequence (Q9UKJ1 20-197): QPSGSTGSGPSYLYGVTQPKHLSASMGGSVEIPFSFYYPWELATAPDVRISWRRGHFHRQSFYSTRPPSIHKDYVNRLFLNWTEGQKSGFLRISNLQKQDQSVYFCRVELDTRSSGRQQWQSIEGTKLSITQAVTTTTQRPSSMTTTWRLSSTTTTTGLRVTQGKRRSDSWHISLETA

B1: soluble human CD99 (coated on the ELISA plate) (natural protein, UniProt P14209 23-122, looked up)
chain: DGGFDLSDALPDNENKKPTAIPKKPSAGDDFDLGDAVVDGENDDPRPPNPPKPMPNPNPNHPSSSGSFSDADLADGVSGGEGKGGSDGGGSHRKEGEEAD
notes: human CD99, soluble; May be the same CD99-Fc (G&P Biosciences) as m6
- binding result [1]: binds

B2: NOA3, anti-CD99 monoclonal antibody (IgG1) (antibody, V domains shown)
VH: EVQLVQSGAEVKKPGESLKIACKGSGYSFSKYWIGWVRQMPGKGLEWMGIIYPGDSDTRYSPSFQGQVTISVDTSISTAYLQWSSLKASDTAIYYCARHLRNFGDAFDIWGQGTTVTVSS
VL: SYELTQPPSVSVSPGQTARITCSGDALPKQYAYWYQQKPGQSPVLVIYQDSKRPSGIPERFSGSNSGNTATLTISGTQAMDEADYYCQAWDSSTAFGGGTKLTVL
notes: constant region IgG1; IgG1; isolated by phage display
- binding result [2]: binds

From publication PMC10967632, “Anti-CD99 Antibody Therapy Triggers Macrophage-Dependent Ewing Cell Death In Vitro and Myeloid Cell Recruitment In Vivo” (Antibodies, 2024)
